What was measured:
[1] = molecular target: Grb2 SH2 (UniProt P62993); assay: SH2 binding enrichment of the phosphorylated peptide, bacterial display (enrichment ratio); higher = better substrate or ligand; peptides without Tyr show the background
[2] = molecular target: c-Src SH2; assay: as above
[3] = molecular target: SHP2-C SH2; assay: as above
[4] = molecular target: EPHB1 (UniProt P54762); assay: phosphorylation enrichment, bacterial display (enrichment ratio); higher = better substrate or ligand; peptides without Tyr show the background
[5] = molecular target: FGFR1 (UniProt P11362); assay: as above
[6] = molecular target: Jak2 (UniProt O60674); assay: as above
[7] = tested on: AncSZ; assay: as above
[8] = molecular target: MERTK (UniProt Q12866); assay: as above
[9] = tested on: Fer (mouse); assay: as above
[10] = tested on: c-Abl (mouse); assay: as above
[11] = molecular target: EPHB2 (UniProt P29323); assay: as above
[12] = molecular target: Hck (UniProt P08631); assay: as above
[13] = molecular target: Fyn (UniProt P06241); assay: as above
[14] = molecular target: Fes (UniProt P07332); assay: as above
[15] = tested on: c-Src; assay: as above
[16] = molecular target: FGFR3 (UniProt P22607); assay: as above
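Throughout, for SH2 binding enrichment of the phosphorylated peptide, bacterial display: peptide library displayed on the E. coli surface as eCPX fusions, selected cells deep-sequenced, score is each peptide's frequency after selection divided by its frequency in the input.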
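Throughout, for phosphorylation enrichment, bacterial display: 11-residue human phosphosite peptides and single-mutation variants displayed on the E. coli surface, counted by deep sequencing, each peptide's frequency after selection divided by its frequency in the unselected input library; frequency after pTyr selection over input frequency; kinase dosed for 20-30% of maximal phosphorylation in three min.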

Sequence of Jak2 (O60674 whole entry, looked up): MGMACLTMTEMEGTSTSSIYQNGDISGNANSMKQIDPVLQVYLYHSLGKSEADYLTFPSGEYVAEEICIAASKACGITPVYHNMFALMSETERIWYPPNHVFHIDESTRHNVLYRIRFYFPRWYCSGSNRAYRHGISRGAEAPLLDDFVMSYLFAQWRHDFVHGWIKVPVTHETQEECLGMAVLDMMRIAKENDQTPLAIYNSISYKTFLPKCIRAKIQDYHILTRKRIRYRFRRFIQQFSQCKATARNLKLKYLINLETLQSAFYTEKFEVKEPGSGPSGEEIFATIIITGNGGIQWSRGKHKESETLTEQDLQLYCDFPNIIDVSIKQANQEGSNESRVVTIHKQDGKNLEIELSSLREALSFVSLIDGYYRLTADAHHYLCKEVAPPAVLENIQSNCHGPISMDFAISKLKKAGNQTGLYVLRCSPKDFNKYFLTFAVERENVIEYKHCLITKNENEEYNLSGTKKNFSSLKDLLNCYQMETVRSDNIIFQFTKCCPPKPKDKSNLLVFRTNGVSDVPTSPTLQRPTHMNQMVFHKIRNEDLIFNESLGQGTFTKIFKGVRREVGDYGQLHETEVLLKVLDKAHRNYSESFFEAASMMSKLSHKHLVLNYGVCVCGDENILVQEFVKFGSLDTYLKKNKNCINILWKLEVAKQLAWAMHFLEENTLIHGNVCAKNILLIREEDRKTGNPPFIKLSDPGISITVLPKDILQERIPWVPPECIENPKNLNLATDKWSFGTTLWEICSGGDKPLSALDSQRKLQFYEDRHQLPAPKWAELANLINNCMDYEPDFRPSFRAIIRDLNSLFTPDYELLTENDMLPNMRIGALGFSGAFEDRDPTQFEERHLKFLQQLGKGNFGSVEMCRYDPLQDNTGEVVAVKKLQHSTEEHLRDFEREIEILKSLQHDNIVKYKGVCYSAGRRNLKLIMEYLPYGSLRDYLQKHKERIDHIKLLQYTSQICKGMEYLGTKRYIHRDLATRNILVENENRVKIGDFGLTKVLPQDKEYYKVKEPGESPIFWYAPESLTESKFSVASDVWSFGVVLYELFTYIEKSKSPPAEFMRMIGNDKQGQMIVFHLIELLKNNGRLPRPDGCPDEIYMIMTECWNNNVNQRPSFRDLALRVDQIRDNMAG
Sequence of Grb2 SH2 (P62993 whole entry, looked up): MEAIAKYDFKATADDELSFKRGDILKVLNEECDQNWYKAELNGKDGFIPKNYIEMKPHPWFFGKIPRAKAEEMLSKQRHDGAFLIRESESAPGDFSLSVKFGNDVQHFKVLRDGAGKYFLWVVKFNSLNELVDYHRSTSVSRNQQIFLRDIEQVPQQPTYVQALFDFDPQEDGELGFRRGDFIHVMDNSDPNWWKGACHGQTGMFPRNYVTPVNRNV
Sequence of EPHB1 (P54762 whole entry, looked up): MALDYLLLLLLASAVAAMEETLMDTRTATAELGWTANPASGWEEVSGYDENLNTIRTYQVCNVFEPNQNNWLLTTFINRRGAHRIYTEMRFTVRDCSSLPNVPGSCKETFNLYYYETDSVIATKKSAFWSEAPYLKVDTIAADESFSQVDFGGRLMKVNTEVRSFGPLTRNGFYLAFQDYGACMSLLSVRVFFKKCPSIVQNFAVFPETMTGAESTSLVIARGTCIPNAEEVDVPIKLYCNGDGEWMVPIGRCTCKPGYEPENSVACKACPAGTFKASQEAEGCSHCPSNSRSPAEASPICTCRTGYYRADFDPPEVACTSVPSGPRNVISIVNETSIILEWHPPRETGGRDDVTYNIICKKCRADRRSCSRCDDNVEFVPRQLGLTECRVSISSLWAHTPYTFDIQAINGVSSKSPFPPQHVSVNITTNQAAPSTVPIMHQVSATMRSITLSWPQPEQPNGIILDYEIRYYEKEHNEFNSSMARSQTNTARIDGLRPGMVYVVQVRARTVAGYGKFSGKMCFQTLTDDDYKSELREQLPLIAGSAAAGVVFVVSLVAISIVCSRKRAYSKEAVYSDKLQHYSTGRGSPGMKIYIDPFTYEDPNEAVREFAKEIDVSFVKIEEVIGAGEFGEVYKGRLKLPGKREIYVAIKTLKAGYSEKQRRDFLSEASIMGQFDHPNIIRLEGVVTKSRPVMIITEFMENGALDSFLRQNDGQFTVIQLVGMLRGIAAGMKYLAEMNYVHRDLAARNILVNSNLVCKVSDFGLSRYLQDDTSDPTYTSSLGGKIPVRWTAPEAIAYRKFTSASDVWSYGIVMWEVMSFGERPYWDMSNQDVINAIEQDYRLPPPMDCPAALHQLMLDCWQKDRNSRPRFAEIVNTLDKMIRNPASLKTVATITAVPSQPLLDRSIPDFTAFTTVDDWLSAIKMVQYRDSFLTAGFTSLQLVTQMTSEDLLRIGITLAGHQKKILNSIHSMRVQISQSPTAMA
Sequence of Hck (P08631 whole entry, looked up): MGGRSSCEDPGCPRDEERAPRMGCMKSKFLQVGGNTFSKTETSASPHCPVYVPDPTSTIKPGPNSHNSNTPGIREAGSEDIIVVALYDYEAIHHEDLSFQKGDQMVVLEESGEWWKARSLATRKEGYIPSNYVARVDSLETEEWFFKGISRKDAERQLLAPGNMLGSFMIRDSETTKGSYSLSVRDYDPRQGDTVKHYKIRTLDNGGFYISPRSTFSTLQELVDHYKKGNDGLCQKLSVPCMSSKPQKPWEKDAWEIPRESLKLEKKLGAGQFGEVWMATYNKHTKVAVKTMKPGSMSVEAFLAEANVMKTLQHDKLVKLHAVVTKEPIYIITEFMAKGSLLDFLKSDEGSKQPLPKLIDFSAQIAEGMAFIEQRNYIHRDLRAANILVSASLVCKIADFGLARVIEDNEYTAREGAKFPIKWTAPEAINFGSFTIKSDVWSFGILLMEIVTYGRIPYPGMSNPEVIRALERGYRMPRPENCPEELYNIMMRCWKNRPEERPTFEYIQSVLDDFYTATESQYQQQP
Sequence of MERTK (Q12866 whole entry, looked up): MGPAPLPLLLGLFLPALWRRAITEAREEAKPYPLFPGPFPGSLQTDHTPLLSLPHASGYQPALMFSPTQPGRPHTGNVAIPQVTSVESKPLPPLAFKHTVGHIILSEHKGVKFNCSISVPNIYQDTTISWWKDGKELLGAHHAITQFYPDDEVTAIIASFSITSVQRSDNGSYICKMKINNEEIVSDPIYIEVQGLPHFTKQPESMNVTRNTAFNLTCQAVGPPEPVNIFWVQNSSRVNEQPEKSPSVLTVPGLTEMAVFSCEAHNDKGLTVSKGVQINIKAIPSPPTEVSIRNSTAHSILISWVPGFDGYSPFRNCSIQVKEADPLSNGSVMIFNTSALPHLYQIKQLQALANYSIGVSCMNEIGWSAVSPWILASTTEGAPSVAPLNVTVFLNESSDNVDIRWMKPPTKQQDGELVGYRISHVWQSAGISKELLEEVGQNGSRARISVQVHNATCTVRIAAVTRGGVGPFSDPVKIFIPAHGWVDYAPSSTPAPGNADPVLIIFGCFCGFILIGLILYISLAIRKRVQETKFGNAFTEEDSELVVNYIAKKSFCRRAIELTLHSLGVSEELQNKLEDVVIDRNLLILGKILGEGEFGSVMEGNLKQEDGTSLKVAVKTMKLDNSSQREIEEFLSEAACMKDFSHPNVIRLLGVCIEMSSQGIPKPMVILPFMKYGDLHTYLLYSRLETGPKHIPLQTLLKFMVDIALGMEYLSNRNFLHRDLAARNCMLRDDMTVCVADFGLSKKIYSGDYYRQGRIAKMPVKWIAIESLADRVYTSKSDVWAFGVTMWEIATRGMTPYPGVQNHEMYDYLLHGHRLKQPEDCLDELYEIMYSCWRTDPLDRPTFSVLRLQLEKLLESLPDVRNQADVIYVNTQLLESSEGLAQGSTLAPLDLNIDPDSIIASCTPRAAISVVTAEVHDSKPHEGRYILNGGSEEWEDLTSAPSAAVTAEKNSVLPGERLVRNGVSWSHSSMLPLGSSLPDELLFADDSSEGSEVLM
Sequence of Fyn (P06241 whole entry, looked up): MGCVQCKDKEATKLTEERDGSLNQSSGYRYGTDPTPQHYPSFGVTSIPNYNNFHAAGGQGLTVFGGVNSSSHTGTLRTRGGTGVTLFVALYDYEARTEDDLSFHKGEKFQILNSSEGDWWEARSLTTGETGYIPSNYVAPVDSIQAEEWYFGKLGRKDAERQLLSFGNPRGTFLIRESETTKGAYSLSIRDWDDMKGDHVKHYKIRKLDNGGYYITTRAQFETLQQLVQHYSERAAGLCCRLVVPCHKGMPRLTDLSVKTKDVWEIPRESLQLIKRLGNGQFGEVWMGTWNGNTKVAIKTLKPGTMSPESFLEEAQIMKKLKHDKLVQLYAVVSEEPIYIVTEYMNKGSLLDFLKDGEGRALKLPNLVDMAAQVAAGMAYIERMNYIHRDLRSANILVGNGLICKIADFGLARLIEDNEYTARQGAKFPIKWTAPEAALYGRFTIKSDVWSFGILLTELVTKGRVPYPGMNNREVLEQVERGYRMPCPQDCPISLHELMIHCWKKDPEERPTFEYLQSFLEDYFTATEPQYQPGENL

Sequence | SH2 binding enrichment [1] | SH2 binding enrichment [2] | SH2 binding enrichment [3] | phosphorylation enrichment [4] | phosphorylation enrichment [5] | phosphorylation enrichment [6] | phosphorylation enrichment [7] | phosphorylation enrichment [8] | phosphorylation enrichment [9] | phosphorylation enrichment [10] | phosphorylation enrichment [11] | phosphorylation enrichment [12] | phosphorylation enrichment [13] | phosphorylation enrichment [14] | phosphorylation enrichment [15] | phosphorylation enrichment [16]
TAPYNYSYIFK [RAB14_Y8] | 1.4 | 13.7 | 1.79 | 9.69 | 1.74 | 0.561 | 1.03 | 6.78 | 1.59 | 0.717 | 3.26 | 1.14 | 0.354 | 0.735 | 0.772 | 1.21
FGSIMYEFVGK [SLC18A1_Y251_V249I] | 0.867 | 0.676 | 0.731 | 1.73 | 0.658 | 0.703 | 1.12 | 6.29 | 9.41 | 0.508 | 1.04 | 5.05 | 1.09 | 0.983 | 1.44 | 0.652
QPGTDYKIYRY [FN1_Y1970_L1974R] | 0.734 | 0.516 | 0.791 | 0.383 | 0.583 | 0.968 | 1.02 | 0.499 | 0.618 | 0.742 | 0.555 | 0.468 | 0.468 | 0.866 | 0.527 | 0.882
KRLKDYLMVLQ [USP25_Y425_T427M] | 1.61 | 1.1 | 1.36 | 0.503 | 1.5 | 0.595 | 0.661 | 0.428 | 0.507 | 0.5 | 0.545 | 0.515 | 0.456 | 0.791 | 0.444 | 0.93
PARLEYFENEK [IRS1_Y46_YF] | 0.834 | 0.647 | 0.817 | 0.714 | 1.03 | 2 | 1.35 | 0.784 | 0.661 | 0.999 | 0.777 | 0.709 | 0.471 | 1.61 | 0.684 | 0.957
PRLMLYNPTTY [EGFR_Y270_P266R] | 1.16 | 0.686 | 1.14 | 0.889 | 0.731 | 1.08 | 0.922 | 0.649 | 0.7 | 0.812 | 0.905 | 0.692 | 0.601 | 1.21 | 0.526 | 0.776
SLNEGYARDFD [FBP1_Y216] | 1.06 | 0.562 | 0.765 | 0.505 | 0.461 | 0.908 | 1.06 | 0.485 | 0.554 | 0.767 | 0.573 | 0.547 | 0.639 | 0.94 | 0.44 | 0.617
HKDNNYVSMWF [PAPOLG_Y432] | 1.02 | 0.557 | 0.817 | 6.89 | 3.98 | 1.01 | 1.36 | 1.5 | 2.8 | 0.654 | 4.55 | 0.636 | 0.77 | 1.39 | 0.666 | 2.75
QMVRMYASSFM [AVPR2_Y124_G122R_YF] | 0.831 | 0.571 | 0.774 | 0.59 | 0.605 | 0.769 | 1.26 | 0.544 | 0.482 | 0.745 | 0.552 | 0.425 | 0.605 | 0.843 | 0.328 | 0.677
RSFPSYYTSHV [NEFL_Y442] | 1.17 | 1.28 | 1.11 | 2.37 | 2.19 | 3.72 | 1.05 | 7.71 | 0.65 | 1.02 | 1.34 | 1.1 | 0.775 | 1.05 | 1.12 | 1.28
GNHISYFQSDG [CACNA1C_Y1757_V1755I_YF] | 0.927 | 0.401 | 0.806 | 0.552 | 0.483 | 0.566 | 0.742 | 0.376 | 0.39 | 0.511 | 0.44 | 0.392 | 0.418 | 0.918 | 0.395 | 0.496
FQLPFYNTVPS [BMPR1A_Y458_M460T_YF] | 0.911 | 5.8 | 0.816 | 0.526 | 0.414 | 0.704 | 0.748 | 0.569 | 0.642 | 0.625 | 0.45 | 0.687 | 0.465 | 0.828 | 0.565 | 0.699
LNLKEYNLVGG [GNAQ_Y356] | 0.783 | 1.17 | 0.844 | 0.307 | 0.357 | 0.793 | 1.23 | 0.424 | 0.685 | 0.709 | 0.411 | 0.485 | 0.529 | 0.867 | 0.561 | 0.698
SFHCSYSEIKD [DCLRE1C_Y322_S320C] | 0.704 | 3.86 | 2.29 | 0.599 | 0.558 | 0.9 | 1.06 | 0.497 | 0.639 | 0.873 | 0.59 | 0.568 | 0.585 | 1.21 | 0.647 | 0.811
TLKDVCDDGKF [RPS6KA3_Y483_Y483C_YF] | 1.16 | 0.66 | 0.809 | 0.555 | 0.583 | 0.873 | 1.03 | 0.498 | 0.523 | 0.885 | 0.545 | 0.427 | 0.446 | 1.1 | 0.433 | 0.601
